Test results from PMC10426277 (European journal of pharmacology, 2023).

Tests used:
Assay in all cases: SPR
[1] = biological target: T1, Peroxiredoxin 1 mutant, last 22 amino acids of the C-terminus deleted (human, UniProt Q06830 1-177)
T1 sequence (looked up): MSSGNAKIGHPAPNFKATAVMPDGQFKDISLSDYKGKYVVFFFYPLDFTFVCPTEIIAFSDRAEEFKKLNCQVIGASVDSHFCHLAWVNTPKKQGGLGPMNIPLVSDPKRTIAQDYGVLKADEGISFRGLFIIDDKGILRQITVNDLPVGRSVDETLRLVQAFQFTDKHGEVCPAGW

[2] = biological target: T2, Peroxiredoxin 1 wildtype, recombinant full-length (human, UniProt Q06830 1-199)
T2 sequence (looked up): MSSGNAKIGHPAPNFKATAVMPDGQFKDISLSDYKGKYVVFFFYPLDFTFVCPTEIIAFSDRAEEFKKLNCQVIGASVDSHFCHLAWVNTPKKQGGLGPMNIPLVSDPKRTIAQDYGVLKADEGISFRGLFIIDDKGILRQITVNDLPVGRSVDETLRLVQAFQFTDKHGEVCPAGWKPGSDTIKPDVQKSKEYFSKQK

[3] = biological target: T3, Peroxiredoxin 4 mutant, C-terminal 22 amino acids deleted (human, UniProt Q13162 38-249)
T3 sequence (looked up): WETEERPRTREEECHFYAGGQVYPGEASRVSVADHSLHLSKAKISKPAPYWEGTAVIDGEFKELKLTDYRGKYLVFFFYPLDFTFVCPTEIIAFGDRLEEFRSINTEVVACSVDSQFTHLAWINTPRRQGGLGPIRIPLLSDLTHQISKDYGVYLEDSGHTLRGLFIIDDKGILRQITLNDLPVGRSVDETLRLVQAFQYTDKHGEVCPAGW

B1: Sulfiredoxin (Srx), recombinant full-length (enzyme)
chain: not shown
B1 gave a Kd [1] of 0.175 µM, a koff [1] of 0.000444 s⁻¹ and a kon [1] of 2540 M⁻¹ s⁻¹. For the same binder, the Kd [2] was 769 µM, the koff [2] was 0.000532 s⁻¹ and the kon [2] was 0.693 M⁻¹ s⁻¹. For the same binder, the Kd [3] was 29.7 µM, the koff [3] was 0.00269 s⁻¹ and the kon [3] was 90.4 M⁻¹ s⁻¹.
